Test [1] concerns the target apical membrane antigen-1 (AMA1) of Plasmodium falciparum, strain 3D7 (Plasmodium falciparum). Kind of test: biosensor, purified proteins.
Test [2] shares this target. Kind of test: protein bioarray.
The target is the same in test [3]. Kind of test: ELISA, biosensor and protein bioarray. On the technique in general: In an ELISA, binding on a coated surface is turned into a signal by an enzyme label.
Test [4] shares this target. Kind of test: not stated (screen of a random mutagenesis library against AMA1).

B1: VNAR 22A-2 (12Y-2 Thr39Ser; Pro90Leu) (VNAR)
VNAR: AWVDQTPRTATKETGESLTINCVLRDASFELKDTGWYRSKLGSTNEQSISIGGRYVETVNKGSKSFSLRISDLRVEDSGTYKCQAFYSLLLGDYNYSLLFRGEKGAGTALTVK
In test [1], B1 registered a fold better affinity than 12Y-2 of 20 fold. In test [2], the Kd – broadly, the concentration at which binding is half-saturated – stood at 2.6 nM. In test [3], this molecule showed a fold better affinity than 14M-15 of 2 fold.

B2: VNAR 14M-8 (12Y-2 Phe100Leu) (VNAR)
VNAR: AWVDQTPRTATKETGESLTINCVLRDASFELKDTGWYRTKLGSTNEQSISIGGRYVETVNKGSKSFSLRISDLRVEDSGTYKCQAFYSLPLGDYNYSLLLRGEKGAGTALTVK
For the molecule B2, the fold enhanced affinity over the wild type 12Y-2 in test [4] was found to be 10 fold.

B3: VNAR 14M-15 (12Y-2 Pro90Leu variant) (VNAR)
VNAR: AWVDQTPRTATKETGESLTINCVLRDASFELKDTGWYRTKLGSTNEQSISIGGRYVETVNKGSKSFSLRISDLRVEDSGTYKCQAFYSLLLGDYNYSLLFRGEKGAGTALTVK
B3: the Kd in test [2] was determined as 6.5 nM. Also, the fold enhanced affinity over the wild type 12Y-2 in test [4] stood at 10 fold.

Source of the values: patent US20120003214A1.
